Experimental findings from paper PMC11969024 (2025) are described below.

B1: peptide HD2 (from tick evasin EVA4) / CXCL13 (biotinylated, synthetic) (parent complex)
chain 1: EEDDYTAYAPLTCYFT
chain 2: VLEVYYTSLRCRCVQESSVFIPRRFIDRIQILPRGNGCPRKEIIVWKKNKSIVCVDPQAEWIQRMMEVLRKRSSSTLPVPVFKRKIP

The variants in this test derive from B1.
Take chain 1 EEDDYTAYAMLTCYFT [chain 1 P10M]: the enrichment was -7.27 log2 (difference from the parental peptide).
Take chain 1 EEDDYTAYASLTCYFT [chain 1 P10S]: the enrichment was -4.38 log2 (difference from the parental peptide).
Then chain 1 EEDDYTAYALLTCYFT [chain 1 P10L], with -9.28 log2 (difference from the parental peptide).
For the variant chain 1 EEDDYTAYAGLTCYFT [chain 1 P10G], the enrichment was 1.04 log2 (difference from the parental peptide).
For the variant chain 1 GEDDYTAYAPLTCYFT [chain 1 E1G], the enrichment is -1.69 log2 (difference from the parental peptide).
Turning to chain 1 WEDDYTAYAPLTCYFT [chain 1 E1W], the enrichment is -0.426 log2 (difference from the parental peptide).
In the case of chain 1 FEDDYTAYAPLTCYFT [chain 1 E1F], the enrichment is -1.39 log2 (difference from the parental peptide).
chain 1 REDDYTAYAPLTCYFT [chain 1 E1R]: the enrichment was -5.75 log2 (difference from the parental peptide).
On to chain 1 IEDDYTAYAPLTCYFT [chain 1 E1I], for which the enrichment was -1.63 log2 (difference from the parental peptide).
Consider chain 1 MEDDYTAYAPLTCYFT [chain 1 E1M], for which the enrichment is -0.674 log2 (difference from the parental peptide).
With chain 1 LEDDYTAYAPLTCYFT [chain 1 E1L], the enrichment was -1.96 log2 (difference from the parental peptide).
For the variant chain 1 YEDDYTAYAPLTCYFT [chain 1 E1Y], the enrichment was 0.38 log2 (difference from the parental peptide).
Then chain 1 VEDDYTAYAPLTCYFT [chain 1 E1V], with -2.3 log2 (difference from the parental peptide); and chain 1 EEDDYTAYAPLTCYWT [chain 1 F15W], with -3.2 log2 (difference from the parental peptide); and chain 1 EEDDYTAYAPLTCYVT [chain 1 F15V], with -2.57 log2 (difference from the parental peptide).
With chain 1 EEDDYTAYAPLTCYIT [chain 1 F15I], the enrichment is -5.03 log2 (difference from the parental peptide).
As for chain 1 EEDDYTAYAPLTCYPT [chain 1 F15P], the enrichment is -3.33 log2 (difference from the parental peptide).
For chain 1 EEDDYTAYAPLTCYET [chain 1 F15E], the enrichment was -7.7 log2 (difference from the parental peptide).
On to chain 1 EEDDYTAYAPLTCYRT [chain 1 F15R], for which the enrichment is -6.31 log2 (difference from the parental peptide).
Take chain 1 EEDDYTAYAPLTCYTT [chain 1 F15T]: the enrichment was -5.1 log2 (difference from the parental peptide).
With chain 1 EEDDYTAYAPLTCYAT [chain 1 F15A], the enrichment is -4.66 log2 (difference from the parental peptide).
Then chain 1 EEDDYTAYAPLTCYGT [chain 1 F15G], with -9.13 log2 (difference from the parental peptide); and chain 1 EEDDYTAYAPLTCYCT [chain 1 F15C], with -7.62 log2 (difference from the parental peptide).
Turning to chain 1 EEDDYTAYAPLTCYLT [chain 1 F15L], the enrichment is -2.76 log2 (difference from the parental peptide).
In the case of chain 1 EEDDYTAYAPLTCYMT [chain 1 F15M] it was -4.67 log2 (difference from the parental peptide); in that of chain 1 EEDDYTAYAPLTYYFT [chain 1 C13Y], -6.52 log2 (difference from the parental peptide); in that of chain 1 EEDDYTAYAPLTAYFT [chain 1 C13A], -7.08 log2 (difference from the parental peptide).
Regarding chain 1 EEDDYTAYAPLTSYFT [chain 1 C13S], the enrichment was -4.26 log2 (difference from the parental peptide).
On to chain 1 EEDDYTAYAPLTPYFT [chain 1 C13P], for which the enrichment was -7.37 log2 (difference from the parental peptide).
Consider chain 1 EEDDYTAYAPLTQYFT [chain 1 C13Q], for which the enrichment was -8.15 log2 (difference from the parental peptide).
Take chain 1 EEDDYTAYAPLTNYFT [chain 1 C13N]: the enrichment was -4.98 log2 (difference from the parental peptide).
As for chain 1 EEDDYTAYAPLTTYFT [chain 1 C13T], the enrichment was -5.19 log2 (difference from the parental peptide).
As to chain 1 EEDDYAAYAPLTCYFT [chain 1 T6A], the enrichment was 1.86 log2 (difference from the parental peptide).
With chain 1 EEDDYDAYAPLTCYFT [chain 1 T6D], the enrichment is 5.14 log2 (difference from the parental peptide).
In the case of chain 1 EEDDYIAYAPLTCYFT [chain 1 T6I], the enrichment was -3.55 log2 (difference from the parental peptide).
As for chain 1 EEDDYWAYAPLTCYFT [chain 1 T6W], the enrichment is 5.97 log2 (difference from the parental peptide).
For the variant chain 1 EEDDYPAYAPLTCYFT [chain 1 T6P], the enrichment is -0.391 log2 (difference from the parental peptide).
Turning to chain 1 EEDDYQAYAPLTCYFT [chain 1 T6Q], the enrichment was 1.51 log2 (difference from the parental peptide).
With chain 1 EEDDYHAYAPLTCYFT [chain 1 T6H], the enrichment was 0.439 log2 (difference from the parental peptide).
Turning to chain 1 EEDDYCAYAPLTCYFT [chain 1 T6C], the enrichment was -9.9 log2 (difference from the parental peptide).
chain 1 EEDDYRAYAPLTCYFT [chain 1 T6R]: the enrichment is -1.88 log2 (difference from the parental peptide).
In the case of chain 1 EEDDYVAYAPLTCYFT [chain 1 T6V], the enrichment is -2.98 log2 (difference from the parental peptide).
In the case of chain 1 EEDDYEAYAPLTCYFT [chain 1 T6E], the enrichment was 4.71 log2 (difference from the parental peptide).
Consider chain 1 EEDDYNAYAPLTCYFT [chain 1 T6N], for which the enrichment was 2.54 log2 (difference from the parental peptide).
Then chain 1 EEDDYTQYAPLTCYFT [chain 1 A7Q], with 3.15 log2 (difference from the parental peptide); and chain 1 EEDDYTDYAPLTCYFT [chain 1 A7D], with 5.88 log2 (difference from the parental peptide).
Take chain 1 EEDDYTLYAPLTCYFT [chain 1 A7L]: the enrichment is 1.64 log2 (difference from the parental peptide).
Turning to chain 1 EEDDYTEYAPLTCYFT [chain 1 A7E], the enrichment is 5.25 log2 (difference from the parental peptide).
Then chain 1 EEDDYTNYAPLTCYFT [chain 1 A7N], with 2.99 log2 (difference from the parental peptide); and chain 1 EEDDYTYYAPLTCYFT [chain 1 A7Y], with 3.99 log2 (difference from the parental peptide).
On to chain 1 EEDDYTKYAPLTCYFT [chain 1 A7K], for which the enrichment was -1.87 log2 (difference from the parental peptide).
For chain 1 EEDDYTRYAPLTCYFT [chain 1 A7R], the enrichment is -1.49 log2 (difference from the parental peptide).
On to chain 1 EEDDYTSYAPLTCYFT [chain 1 A7S], for which the enrichment is 2.57 log2 (difference from the parental peptide).
On to chain 1 EEDDYTAYAPCTCYFT [chain 1 L11C], for which the enrichment is -5.19 log2 (difference from the parental peptide).
Take chain 1 EEDDYTAYAPNTCYFT [chain 1 L11N]: the enrichment is -7.22 log2 (difference from the parental peptide).
Turning to chain 1 EEDDYTAYAPMTCYFT [chain 1 L11M], the enrichment was 3.77 log2 (difference from the parental peptide).
In the case of chain 1 EEDDYTAYAPHTCYFT [chain 1 L11H] it was -5.03 log2 (difference from the parental peptide); in that of chain 1 EEDDYTAYAPSTCYFT [chain 1 L11S], -8.97 log2 (difference from the parental peptide); in that of chain 1 EMDDYTAYAPLTCYFT [chain 1 E2M], -1.37 log2 (difference from the parental peptide).
Regarding chain 1 EQDDYTAYAPLTCYFT [chain 1 E2Q], the enrichment is -2.09 log2 (difference from the parental peptide).
In the case of chain 1 EDDDYTAYAPLTCYFT [chain 1 E2D] it was 1.8 log2 (difference from the parental peptide); in that of chain 1 EHDDYTAYAPLTCYFT [chain 1 E2H], -3.83 log2 (difference from the parental peptide); in that of chain 1 EVDDYTAYAPLTCYFT [chain 1 E2V], -1.21 log2 (difference from the parental peptide).
In the case of chain 1 EEDDYTAYAPLTCYFP [chain 1 T16P] it was -0.922 log2 (difference from the parental peptide).
In the case of chain 1 EEDDYTAYAPLTCYFH [chain 1 T16H] it was 0.0142 log2 (difference from the parental peptide); in that of chain 1 EEDDYTAYAPLTCYFK [chain 1 T16K], -6.05 log2 (difference from the parental peptide).
Take chain 1 EEDDYTAYAPLTCYFN [chain 1 T16N]: the enrichment is -0.837 log2 (difference from the parental peptide).
Take chain 1 EEDDYTAYAPLTCYFM [chain 1 T16M]: the enrichment was 0.915 log2 (difference from the parental peptide).
As for chain 1 EEDDYTAYAPLTCYFE [chain 1 T16E], the enrichment is 1.77 log2 (difference from the parental peptide).
Consider chain 1 EEDDYTAYAPLTCYFQ [chain 1 T16Q], for which the enrichment was -1.21 log2 (difference from the parental peptide).
On to chain 1 EEDDYTAYAPLTCYFW [chain 1 T16W], for which the enrichment is -0.0649 log2 (difference from the parental peptide).
Then chain 1 EEDDYTAYAPLTCYFV [chain 1 T16V], with -0.466 log2 (difference from the parental peptide).
As for chain 1 EEDDYTAYAPLTCYFI [chain 1 T16I], the enrichment is -0.117 log2 (difference from the parental peptide).
Regarding chain 1 EEDDYTAYAPLTCYFL [chain 1 T16L], the enrichment is -0.207 log2 (difference from the parental peptide).
On to chain 1 EEDPYTAYAPLTCYFT [chain 1 D4P], for which the enrichment is -1.45 log2 (difference from the parental peptide).
As to chain 1 EEDIYTAYAPLTCYFT [chain 1 D4I], the enrichment is -4.76 log2 (difference from the parental peptide).
chain 1 EEDQYTAYAPLTCYFT [chain 1 D4Q]: the enrichment was -2.67 log2 (difference from the parental peptide).
In the case of chain 1 EEDLYTAYAPLTCYFT [chain 1 D4L] it was -4.8 log2 (difference from the parental peptide); in that of chain 1 EEDAYTAYAPLTCYFT [chain 1 D4A], -6.85 log2 (difference from the parental peptide).
Regarding chain 1 EEDMYTAYAPLTCYFT [chain 1 D4M], the enrichment is -5.4 log2 (difference from the parental peptide).
On to chain 1 EEDSYTAYAPLTCYFT [chain 1 D4S], for which the enrichment is -5.37 log2 (difference from the parental peptide).
Take chain 1 EEDDYTAYAPLTCCFT [chain 1 Y14C]: the enrichment was -6.09 log2 (difference from the parental peptide).
For chain 1 EEDDYTAYAPLQCYFT [chain 1 T12Q], the enrichment is -3.59 log2 (difference from the parental peptide).
For chain 1 EEDDYTAYAPLLCYFT [chain 1 T12L], the enrichment is -1.72 log2 (difference from the parental peptide).
chain 1 EEDDYTAYAPLSCYFT [chain 1 T12S]: the enrichment is -6.76 log2 (difference from the parental peptide).
For chain 1 EEDDYTAYAPLHCYFT [chain 1 T12H], the enrichment is -5.34 log2 (difference from the parental peptide).
As to chain 1 EEDDYTAYAPLNCYFT [chain 1 T12N], the enrichment was -4.95 log2 (difference from the parental peptide).
For chain 1 EEDDETAYAPLTCYFT [chain 1 Y5E], the enrichment was -0.259 log2 (difference from the parental peptide).
In the case of chain 1 EEDDSTAYAPLTCYFT [chain 1 Y5S] it was -3.07 log2 (difference from the parental peptide); in that of chain 1 EEDDFTAYAPLTCYFT [chain 1 Y5F], -0.242 log2 (difference from the parental peptide).
Regarding chain 1 EEDDQTAYAPLTCYFT [chain 1 Y5Q], the enrichment is -3.13 log2 (difference from the parental peptide).
chain 1 EEDDLTAYAPLTCYFT [chain 1 Y5L]: the enrichment was -1.23 log2 (difference from the parental peptide).
For the variant chain 1 EEDDNTAYAPLTCYFT [chain 1 Y5N], the enrichment was -2.57 log2 (difference from the parental peptide).
In the case of chain 1 EEFDYTAYAPLTCYFT [chain 1 D3F] it was -4.35 log2 (difference from the parental peptide).
Consider chain 1 EEIDYTAYAPLTCYFT [chain 1 D3I], for which the enrichment is -5.63 log2 (difference from the parental peptide).
On to chain 1 EEEDYTAYAPLTCYFT [chain 1 D3E], for which the enrichment is 0.606 log2 (difference from the parental peptide).
As to chain 1 EEADYTAYAPLTCYFT [chain 1 D3A], the enrichment is -5.8 log2 (difference from the parental peptide).
With chain 1 EENDYTAYAPLTCYFT [chain 1 D3N], the enrichment is -4.32 log2 (difference from the parental peptide).
chain 1 EESDYTAYAPLTCYFT [chain 1 D3S]: the enrichment is -3.94 log2 (difference from the parental peptide).
chain 1 EEDDYTATAPLTCYFT [chain 1 Y8T]: the enrichment is -4.45 log2 (difference from the parental peptide).
In the case of chain 1 EEDDYTAMAPLTCYFT [chain 1 Y8M] it was -1.68 log2 (difference from the parental peptide); in that of chain 1 EEDDYTALAPLTCYFT [chain 1 Y8L], -2.2 log2 (difference from the parental peptide); in that of chain 1 EEDDYTAQAPLTCYFT [chain 1 Y8Q], -5.13 log2 (difference from the parental peptide).
For chain 1 EEDDYTADAPLTCYFT [chain 1 Y8D], the enrichment is 0.221 log2 (difference from the parental peptide).
chain 1 EEDDYTAVAPLTCYFT [chain 1 Y8V]: the enrichment is -4.22 log2 (difference from the parental peptide).
Take chain 1 EEDDYTANAPLTCYFT [chain 1 Y8N]: the enrichment was -3.32 log2 (difference from the parental peptide).
As to chain 1 EEDDYTAYWPLTCYFT [chain 1 A9W], the enrichment is 1.81 log2 (difference from the parental peptide).
For chain 1 EEDDYTAYIPLTCYFT [chain 1 A9I], the enrichment was -5.77 log2 (difference from the parental peptide).
For chain 1 EEDDYTAYGPLTCYFT [chain 1 A9G], the enrichment is 0.486 log2 (difference from the parental peptide).
On to chain 1 EEDDYTAYMPLTCYFT [chain 1 A9M], for which the enrichment is -0.268 log2 (difference from the parental peptide).
For the variant chain 1 EEDDYTAYSPLTCYFT [chain 1 A9S], the enrichment is -1.23 log2 (difference from the parental peptide).
In the case of chain 1 EEDDYTAYRPLTCYFT [chain 1 A9R] it was -4.49 log2 (difference from the parental peptide).
